To fix the notation:
B1: D1T-IgG2 (Fc fusion)
chain: MHVAQPAVVLASSRGIASFVCEYESPHKANEIRVTVLRQANSQVTEVCAMTYMKGDELTFLDDPFCTGTFSGNQVNLTIQGLRAADTGLYICKVELMYPPPYYLGIGNGTQIYVIDPEPCPDSDERKCCVECPPCPAPPVAGPSVFLFPPKPKDTLMISRTPEVTCVVVDVSHEDPEVQFNWYVDGVEVHNAKTKPREEQFNSTFRVVSVLTVVHQDWLNGKEYKCKVSNKGLPAPIEKTISKTKGQPREPQVYTLPPSREEMTKNQVSLTCLVKGFYPSDIAVEWESNGQPENNYKTTPPMLDSDGSFFLYSKLTVDKSRWQQGNVFSCSVMHEALHNHYTQKSLSLSPG
B2: D3-74-IgG2 (Fc fusion)
chain: B1 chain with E24A, H27G, N41D, D56N, F65I, A85M, L104E
B3: D3-25-IgG2 (Fc fusion)
chain: B1 chain with H27G, N41G, D56N, F65S
B4: D3-23-IgG2 (Fc fusion)
chain: B1 chain with H27G, N41D, D56N, F65S, I106F
B5: D5-IgG2 (Fc fusion)
chain: B1 chain with E24A, H27G, N30T, I32V, N41D, M50A, K54M, F65I, A85M
B6: D3-5-IgG2 (Fc fusion)
chain: B1 chain with H27G, N41G, M50A, F65S, I106F
B7: D3-30-IgG2 (Fc fusion)
chain: B1 chain with H27G, N41D, F65I, A85M
B8: D6-IgG2 (Fc fusion)
chain: B1 chain with E24A, H27G, N30T, N41D, K54M, F65I, A85M
B9: D3-22-IgG2 (Fc fusion)
chain: B1 chain with H27G, N41G, D56N, F65S, A85M
B10: D3-19-IgG2 (Fc fusion)
chain: B1 chain with H27G, N41D, D56N, F65S
B11: D3-16-IgG2 (Fc fusion)
chain: B1 chain with H27G, N41G, F65S, A85M
B12: D3-66-IgG2 (Fc fusion)
chain: B1 chain with E24A, H27G, I32V, N41D, F65I, A85M, L104E
B13: D3-28-IgG2 (Fc fusion)
chain: B1 chain with H27G, N41D, D56N, F65I, A85M
B14: D3-33-IgG2 (Fc fusion)
chain: B1 chain with H27G, Q39K, N41D, G55E, F65S
B15: D3-76-IgG2 (Fc fusion)
chain: B1 chain with E24A, H27G, I32V, N41D, G55E, F65I, A85M
B16: D3-26-IgG2 (Fc fusion)
chain: B1 chain with E24A, H27G, N41D, D56N, F65S, A85M
B17: D4-IgG2 (Fc fusion)
chain: B1 chain with E24S, H27G, N30D, N41S, K54E, F65T, A85V, I106F
notes: also called clone D4
B18: D3-8-IgG2 (Fc fusion)
chain: B1 chain with H27G, N41G, P64S, F65S, I106F
B19: D3-32-IgG2 (Fc fusion)
chain: B1 chain with H27G, Q39K, N41D, F65S
B20: D3-7-IgG2 (Fc fusion)
chain: B1 chain with H27G, N41G, D56N, F65S, I106F
notes: also called D3-07
B21: D3-21-IgG2 (Fc fusion)
chain: B1 chain with H27G, N41D, D56N, F65S, A85M, I106F
B22: D23-IgG2 (Fc fusion)
chain: B1 chain with E24S, S25A, K28N, N30A, Q39K, N41G, G55E, F65S, I106L
B23: D3-9-IgG2 (Fc fusion)
chain: B1 chain with H27G, N41G, F65I, I106F
B24: D3-24-IgG2 (Fc fusion)
chain: B1 chain with H27G, N41G, D56N, F65S, A85M, I106F
B25: D20-IgG2 (Fc fusion)
chain: B1 chain with N30T, N41D, K54M, G55E, F65I, A85M
B26: D3-1-IgG2 (Fc fusion)
chain: B1 chain with E24A, H27G, N41G, F65S, I106F
B27: D26-IgG2 (Fc fusion)
chain: B1 chain with S25A, I32V, Q39E, N41G, K54V, G55E, F65S, I106L
B28: D21-IgG2 (Fc fusion)
chain: MHVAQPAVVLASSRGIASFVCEYSAPHNADEIRVTVLRKASSQVTEVCAMTYMEEDELTFLDDPTCTGTFSGNQVNLTIQGLRAVDTGLYICKVELMYPPPYYLGFGNGTQIYVIDPEPCPDSDERKCCVECPPCPAPPVAGPSVFLFPPKPKDTLMISRTPEVTCVVVDVSHEDPEVQFNWYVDGVEVHNAKTKPREEQFNSTFRVVSVLTVVHQDWLNGKEYKCKVSNKGLPAPIEKTISKTKGQPREPQVYTLPPSREEMTKNQVSLTCLVKGFYPSDIAVEWESNGQPENNYKTTPPMLDSDGSFFLYSKLTVDKSRWQQGNVFSCSVMHEALHNHYTQKSLSLSPG
B29: D24-IgG2 (Fc fusion)
chain: B1 chain with H27G, Q39K, N41G, G55E, F65S, I106L

The values below come from patent US20110177071A1 (PERSEID THERAPEUTICS, published 2011).

Numbering of substitutions follows the chain as printed. Names may count otherwise.

A word on the Kd: it is a measure of binding affinity in units of concentration. A high value points to lower affinity.

The first experiment deals with T1, human CD80-murine Ig fusion protein (human).
T1 construct: Bought (Ancell #510-820); also called hCD80-mIg; human CD80-murine IgG
T1 chain: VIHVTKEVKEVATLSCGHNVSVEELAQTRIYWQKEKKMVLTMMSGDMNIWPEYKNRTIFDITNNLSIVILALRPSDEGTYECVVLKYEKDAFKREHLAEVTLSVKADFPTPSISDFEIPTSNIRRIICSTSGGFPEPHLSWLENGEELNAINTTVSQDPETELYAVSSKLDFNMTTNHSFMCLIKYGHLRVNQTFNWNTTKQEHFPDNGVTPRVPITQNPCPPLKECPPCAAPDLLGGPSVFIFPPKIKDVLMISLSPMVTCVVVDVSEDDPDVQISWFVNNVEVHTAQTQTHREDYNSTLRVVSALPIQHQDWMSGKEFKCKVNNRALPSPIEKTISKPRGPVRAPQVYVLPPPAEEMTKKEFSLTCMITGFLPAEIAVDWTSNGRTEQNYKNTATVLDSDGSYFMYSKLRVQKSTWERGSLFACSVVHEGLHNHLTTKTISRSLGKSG
As to the kind of experiment: SPR Biacore, hCD80-mIg captured. Here is the method: (§1) All Biacore™ analyses were performed on a Biacore™ 2000 system (GE Healthcare) at room temperature (RT, 25° C.). HBS-EP buffer (10 mM HEPES (pH 7.4), 150 mM NaCl, 3 mM EDTA, 0.005% surfactant P20) was used as the flow buffer for all experiments.
(§2) Rabbit anti-mouse IgG antibody (GE Healthcare, #BR-1005-14) was immobilized on CM5 sensor chips (GE Healthcare, #BR-1000-14) according to the manufacturer's protocol. Antibody was diluted to 30 μg/ml in immobilization buffer (10 mM sodium acetate, pH 5.0 (BR-1003-51)). At a flow rate of 5 μl/minute, sensor chip CM5 was activated with a 35 μl injection of a mixture of 1-Ethyl-3-[3-dimethylaminopropyl]carbodiimide hydrochloride (EDC) and N-hydroxysuccinimide (NHS) (made by mixing equal volumes of 11.5 mg/ml EDC and 75 mg/ml NHS) (GE Healthcare, #BR-1000-50), followed by a 35 μl injection of undiluted antibody. Un-reacted sites were quenched with 35 μl of 1M ethanolamine-HCL, pH 8.5 (GE Healthcare, #BR-1000-50). […] CTLA-4 ligands human CD80-murine Ig (hCD80-mIg) (Ancell, #510-820) or human CD86-murine Ig (hCD86-mIg) (Ancell, #509-820) were bound to antibody-coated sensor chips by injection of 10 μl or 16 μl, respectively, ligand solution (2 μg/ml protein in HBS-EP buffer [10 mM HEPES pH 7.4, 150 mM NaCl, 3 mM EDTA, 0.005% (v/v) surfactant P-20, GE Healthcare, #BR-1001-88]) at a flow rate of 10 μl/min.
For orientation: SPR reads the build-up and loss of mass on a sensor chip optically.
For B1, the “Binding Avidity (Relative to Orencia)” value was more than 2 fold and the Kd is less than 439 pM.

With B2, the “Binding Avidity (Relative to Orencia)” value is more than 2 fold and the Kd was less than 439 pM.

For the molecule B3, the Kd was in the range of 439 to 1750 pM.

The molecule B4 came in with a Kd of 439 to 1750 pM.

Molecule B5 displayed a Kd of 439 to 1750 pM.

B6 came in with a Kd of 439 to 1750 pM.

Molecule B7 returned a Kd of 439 to 1750 pM.

Consider B8, for which the Kd was in the range of 439 to 1750 pM.

In the case of B9, the Kd lay in the range of 439 to 1750 pM.

Take B10: the equilibrium dissociation constant (Kd) fell in the range of 439 to 1750 pM.

Turning to B11, the Kd fell in the range of 439 to 1750 pM.

For B12, the “Binding Avidity (Relative to Orencia)” value is more than 2 fold and the Kd was less than 439 pM.

In turn, B13 returned a Kd of 439 to 1750 pM.

B14: the Kd was in the range of 439 to 1750 pM.

For B15, the Kd is 439 to 1750 pM.

Regarding B16, the Kd was in the range of 439 to 1750 pM.

For the molecule B17, the Kd fell in the range of 439 to 1750 pM.

Take B18: the Kd lay within 439 to 1750 pM.

Take B19: the Kd fell in the range of 439 to 1750 pM.

In turn, B20 gave a Kd of 439 to 1750 pM.

For the molecule B21, the Kd lay within 439 to 1750 pM.

Consider B22, for which the “Binding Avidity (Relative to Orencia)” value was more than 2 fold and the Kd was less than 439 pM.

The molecule B23 registered a Kd of 439 to 1750 pM.

As for B24, the Kd lay in the range of 439 to 1750 pM.

For B25, the Kd was in the range of 439 to 1750 pM.

With B26, the Kd is 439 to 1750 pM.

Turning to B27, the Kd is 439 to 1750 pM.

In the case of B28, the Kd was in the range of 439 to 1750 pM.

On to B29, for which the Kd was 439 to 1750 pM.

A further experiment deals with T2, human CD86-murine Ig fusion protein (human).
T2 construct: Bought (Ancell #509-820); also called hCD86-mIg
T2 chain: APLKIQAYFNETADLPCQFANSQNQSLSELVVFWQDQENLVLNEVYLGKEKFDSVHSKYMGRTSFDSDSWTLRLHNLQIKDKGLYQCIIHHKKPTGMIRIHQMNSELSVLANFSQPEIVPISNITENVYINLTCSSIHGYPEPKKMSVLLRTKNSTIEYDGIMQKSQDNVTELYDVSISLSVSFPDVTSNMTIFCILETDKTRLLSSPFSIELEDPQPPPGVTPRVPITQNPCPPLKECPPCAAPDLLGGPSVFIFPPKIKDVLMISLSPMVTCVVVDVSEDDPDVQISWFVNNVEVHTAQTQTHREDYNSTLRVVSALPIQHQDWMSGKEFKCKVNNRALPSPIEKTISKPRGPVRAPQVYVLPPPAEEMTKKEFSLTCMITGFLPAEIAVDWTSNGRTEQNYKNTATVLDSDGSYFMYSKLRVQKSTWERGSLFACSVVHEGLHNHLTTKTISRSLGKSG
As to the kind of experiment: SPR Biacore, hCD86-mIg captured. Here is the method:
as §1, §2
Turning to B1, the Kd was in the range of 262 to 523 pM.

Regarding B2, the “Binding Avidity (Relative to Orencia)” value was more than 40 fold and the Kd is less than 131 pM.

Consider B3, for which the Kd was 131 to 262 pM.

B4: the Kd fell in the range of 131 to 262 pM.

B5 showed a Kd of 523 to 2650 pM.

As to B6, the Kd is 131 to 262 pM.

B7 registered a Kd of 131 to 262 pM.

B8 showed a Kd of 523 to 2650 pM.

The molecule B9 had a Kd of 131 to 262 pM.

In turn, B10 showed a Kd of 131 to 262 pM.

B11: the “Binding Avidity (Relative to Orencia)” value was more than 40 fold and the Kd is less than 131 pM.

With B12, the “Binding Avidity (Relative to Orencia)” value is more than 40 fold and the Kd was less than 131 pM.

B13: the Kd lay within 262 to 523 pM.

Regarding B14, the “Binding Avidity (Relative to Orencia)” value is more than 40 fold and the Kd was less than 131 pM.

In the case of B15, the “Binding Avidity (Relative to Orencia)” value was more than 40 fold and the Kd was less than 131 pM.

Regarding B16, the Kd fell in the range of 131 to 262 pM.

Turning to B17, the Kd was 523 to 2650 pM.

As to B18, the Kd fell in the range of 131 to 262 pM.

Regarding B19, the “Binding Avidity (Relative to Orencia)” value was more than 40 fold and the Kd is less than 131 pM.

For the molecule B20, the “Binding Avidity (Relative to Orencia)” value is more than 40 fold and the Kd was less than 131 pM.

The molecule B21 displayed a Kd of 131 to 262 pM.

In the case of B22, the “Binding Avidity (Relative to Orencia)” value is more than 40 fold and the Kd is less than 131 pM.

With B23, the “Binding Avidity (Relative to Orencia)” value was more than 40 fold and the Kd is less than 131 pM.

The molecule B24 yielded a Kd of 131 to 262 pM.

Take B25: the Kd was in the range of 131 to 262 pM.

As to B26, the “Binding Avidity (Relative to Orencia)” value was more than 40 fold and the Kd was less than 131 pM.

In the case of B27, the “Binding Avidity (Relative to Orencia)” value is more than 40 fold and the Kd was less than 131 pM.

Take B28: the Kd was in the range of 131 to 262 pM.

With B29, the “Binding Avidity (Relative to Orencia)” value is more than 40 fold and the Kd was less than 131 pM.
